In article PMC9071424, “Microarray screening reveals two non-conventional SUMO-binding modules linked to DNA repair by non-homologous end-joining” (Nucleic Acids Research, 2022):

Target: T1, XLF-6×His (human, UniProt Q9H9Q4 1-299)
T1 construct: XLF (NHEJ1), human, amplified from pGEX2TKP-XLF and subcloned into pHAT5; source: E. coli BL21-CodonPlus (DE3)-RIL, purified (HP His-trap, HiTrap Q HP)
Test: BLI; XLF binding of XRCC4 1–164 and its mutants
Conditions: both partners purified

T1 sequence (Q9H9Q4 whole entry): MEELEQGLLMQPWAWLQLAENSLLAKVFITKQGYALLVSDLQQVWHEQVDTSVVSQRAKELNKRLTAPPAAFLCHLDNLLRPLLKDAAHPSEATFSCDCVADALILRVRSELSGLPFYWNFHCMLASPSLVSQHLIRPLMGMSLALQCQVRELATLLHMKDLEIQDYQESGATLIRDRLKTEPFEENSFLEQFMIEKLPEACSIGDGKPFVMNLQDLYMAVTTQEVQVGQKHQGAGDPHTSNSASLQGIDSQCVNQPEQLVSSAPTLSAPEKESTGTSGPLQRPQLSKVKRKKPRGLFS

B1: 6×His-XRCC4^1–164 (C-to-A) (domain or fragment, human, UniProt Q13426 1-164, looked up)
chain: MERKISRIHLVSEPSITHFLQVSWEKTLESGFVITLTDGHSAWTGTVSESEISQEADDMAMEKGKYVGELRKALLSGAGPADVYTFNFSKESAYFFFEKNLKDVSFRLGSFNLEKVENPAEVIRELIAYALDTIAENQAKNEHLQKENERLLRDWNDVQGRFEK
modifications: 15N-labelled where it was the observed protein in NMR
notes: pET-28a vector; also called XRCC4 head domain; not shown: 6×His, N-terminal, kept
binding result: binds
